In patent US10526691B2, “Functionalized surface” (priority 2015, dated 2020):
Ends that are not written are not given here.

What was measured:
S. epidemridis = test: Crystal violet absorbance of bacteria adhering to peptide-coated nitrided steel; format: cell-based; details: overnight at 37° C., FIG. 14
Procedure: Nitrided steel was incubated with a solution of an antimicrobial peptide having the sequence RRIYGRGYIRR (SEQ ID NO: 1) (25 µl, 10 mg/ml/cm^2) at room temperature for 1 hour with a HBTU/DIEA catalyst in DMF to produce a coated surface.
Coated surfaces were inoculated with […] bacterial cells (S. epidemridis) and incubated overnight at 37° C. The surfaces were then washed with PBS and stained using Crystal Violet ([…]) for 15 minutes at room temperature. The surfaces were washed three times to remove any residual stain and the stain lifted in 70% ethanol. The absorbance of crystal violet was read at 560 nm to quantify the level of stain (FIG. 14). The amount of stain is directly related to the number of bacteria.

[1] = Peptide attachment to nitrided / nitrocarburised steel types, fluorescence microscopy pixel count; format: physicochemical; details: FIG. 1
Procedure: Nitrided metal surfaces were incubated overnight at room temperature on a rotamixer in a solution comprising a 9:0.5:0.5 ratio of dimethylformamide (DMF), DIPIA and HBTU, respectively, and 0.5 µg/ml of the peptide […] (SEQ ID NO: 5) tagged with a fluorescent label. Following incubation, surfaces were washed with DMF, which was replenished every 5 minutes for 50 minutes, followed by saline, which was also replenished every 5 minutes for 50 minutes, before being left to air dry.
(§1) The peptide percentage surface coverage of the metal was assessed by the use of fluorescent peptides and microscopy. Peptide coated metal was viewed by a fluorescence microscope at an exposure of 1.55 s using a 10× objective. Nine images for each 1 cm^2 piece of steel were obtained. Images were analysed using ImageJ software (NIH, MD, USA). The threshold from control images, obtained from nitrided metal which had not been treated with peptide, was adjusted until all of the pixels were removed, leaving an image with no staining. This acted as a control baseline. Images from corresponding experimental samples were then adjusted to this threshold value and the residual pixel count then recorded as a measure of peptide attachment.

[2] = Peptide coverage of nitrided steel after environmental, cleaning or coating treatments, fluorescence microscopy; format: physicochemical
Procedure: as §1
Mild steel was nitrided using a standard process for 19 hours at 440° C. by Metaltech. The peptide […] tagged with a fluorescent label was immobilized on the surface of the nitrided steel as described in Example 1. Peptide-coated steel was incubated in the appropriate environmental treatment at room temperature for a suitable time which depended on the treatment used. Samples were washed with saline following treatment and peptide attachment analysed by microscopy as detailed in Example 1.
Mild steel was nitrided using a standard process by Metaltech. The peptide […] (SEQ ID NO: 5) tagged with a fluorescent label was immobilized on the surface of the nitrided steel as described in Example 1. Peptide-coated steel was incubated in the appropriate environmental treatment at room temperature for a suitable time which depended on the treatment used. Samples were washed with saline following treatment and peptide attachment analysed by microscopy as detailed in Example 1.
Steel was nitrided or plasma ferretic nitrocarburised as described in Example 1, after which the peptide […] (SEQ ID NO: 5), tagged with a fluorescent label was immobilised on the nitrided surface as described in Example 1.
Peptide-coated alpha steel samples were incubated in various standard cleaning or coating treatments at room temperature, for a suitable time which depended on the treatment used, in order to determine if any of these treatments affected the attachment of the peptide to the steel. […] This decrease may be partly accounted for by loss of fluorescence over the period of 3 weeks as the steel pieces were repeatedly exposed to light.

[3] = tested on: colony forming unit (CFU) counts; test: CFU count on peptide-coated versus control nitrided α2 steel attached to areas with high predicted CFU counts; details: α2 steel coated with unlabelled peptide; swabs on days 1, 2, 7, 8 and 9; all areas tested; FIG. 7
Procedure: α2 steel was prepared using a standard nitriding process and coated with 1 µg/ml of the unlabelled peptide […] (SEQ ID NO: 5) using the method as described in Example 1. Peptide coated, or control uncoated steel samples were then attached to areas where high colony forming unit (CFU) counts were predicted (e.g. toilet seat, kitchen tap etc.). Cotton wool buds, dipped in saline, were used to swab surfaces on days 1, 2, 7, 8 and 9. Buds were placed in sterelin tubes and used to inoculate blood agar plates, following which plates were incubated for 48 hours at 37° C. before CFU counts were taken.

[4] = Peptide fluorescence on nitrided titanium over 1 to 4 weeks in PBS; format: physicochemical; details: FIG. 8; for change of pixel number: nitrided titanium in PBS
Procedure: Having established the durability and the efficacy of immobilized peptides on a steel surface, the efficacy of peptides immobilized on a titanium surface was assessed. Nitrided titanium was prepared by Metaltech. […] (SEQ ID NO: 5), tagged with a fluorescent label, was immobilised on the surface of the nitrided titanium as described previously. Peptide-coated samples were incubated in PBS solution at room temperature for between 1 and 4 weeks, following which fluorescence, and the resulting pixel number above threshold, was assessed as described previously by fluorescence microscopy.

[5] = Peptide fluorescence on nitrided titanium after environmental treatments; format: physicochemical; details: FIG. 9
Procedure: The durability of immobilized peptide on the surface of nitrided titanium was assessed following different environmental treatments, as shown in FIG. 9. […] (SEQ ID NO: 5)-coated titanium was incubated in control PBS solution, trypsin, Dettola or treated with sandpaper at room temperature for a suitable time which depended on the treatment used. The mean pixel number above the threshold was then assessed by fluorescence microscopy. Importantly, peptide fluorescence was retained after any of the environmental treatments, indicating a strong and durable interaction between peptide and metal.

bacteria [6] = test: Bacterial growth (absorbance) on peptide-coated nitrided titanium used as growth plate; format: cell-based; details: antimicrobial-peptide-coated nitrided titanium, in comparison to the controls; FIG. 10
Procedure: Nitrided titanium was prepared by Metaltech, and coated as described previously with the peptide […] (SEQ ID NO: 5), aside from a control (peptide) group in which nitrided titanium was coated with a non-antimicrobial peptide, and a control (titanium) group where the nitrided titanium remained uncoated. A positive control group, consisting of uncoated tissue culture plastic, was also used. The surfaces were washed and used as growth plates for bacteria. One group of antimicrobial peptide-coated titanium surfaces was immediately used as a growth plate for bacteria (treatment (immediate)). Another antimicrobial peptide-coated titanium group (treatment (environment)) was treated with PBS, followed by trypsin/EDTA, followed by Dettol followed by sandpapering, following which the surfaces were used as a growth plate for bacteria. The Absorbance relates to the bacteria number growing on the surface after incubation (FIG. 10). Low values indicate no bacterial growth, while high values indicate high numbers of bacteria.

bacteria [7] = test: Peptide-coated nitrided steel surfaces in a hospital unit over three months, bacteria counts
Procedure: A nitrided steel surface was coated with the peptide […] (SEQ ID NO: 5). The surface was dip-coated in a mixture of the peptide (3 µl of 10 mg/ml peptide per cm^2 of metal) and a catalyst (HBTU/DIEA mix) which adhered the peptide to the surface. Coating was carried out at room temperature for 12 hours.
Coated and uncoated steel surfaces were installed in a hospital unit, in the Accident and Emergency room, Operating Theatre, Ward 1 and the associated bathroom. Control surfaces and coated surfaces were situated in identical locations and tested over three months. After use the samples and data collected were sent to the University of Birmingham for analysis.

bacteria [8] = test: Peptide-coated nitrided steel surfaces on door handles, city hospital Outpatients area, three months
Procedure: A further study was carried out in the Outpatients area of a city hospital. This is a very busy area of the hospital and sees a high volume of patient and staff traffic. The peptide used was […] (SEQ ID NO: 5), and the coated steel surfaces were prepared as in Example 8.
Control and coated surfaces were placed on door handles in the Outpatients area. […] We saw 1 colony growth from the surfaces, which is believed to be due to the frequency of use of the surfaces. Surfaces were touched on average every 2 minutes during an observation period and, in a lot of cases, the surfaces had been touched immediately prior to the swabbing being undertaken.

bacteria [9] = test: Long term study of peptide-coated surfaces on taps in a medical school, one year; details: taps in toilets of a medical school; after 12 months; FIG. 13
Text: The peptide-coated surfaces described in Examples 8 and 9 were installed in a medical school. The surfaces were placed on taps in the toilets and were swabbed over a period of one year.

For “RRIYGRGYIRR (RRYIGRGYIRR) [antimicrobial peptide coated on nitrided steel]”, which “number of bacteria adhering to the surface (crystal violet absorbance at 560 nm)” value (S. epidemridis) is on record?
The value was “significantly reduce the number of bacteria adhering to the surface”.

Which “preferential binding to steel type” value ([1]; comparison of eight steel types) does the source give for “RRRRRRGALAGRRRRRRGALAG (also: fluorescent tag, immobilized on steel or titanium) [antimicrobial peptide immobilized covalently on nitrided steel or titanium; fluorescently tagged in the attachment studies]” here?
Its value is “highest binding affinity for alpha steel types”.

And the “mean pixel counts (peptide attachment)” value ([1]; eight steel types (α1-3, β1-3, P1-P2), fluorescently tagged peptide)?
Its value is “above 0”.

What about the “difference in pixel counts between treatments” value ([2]; P2 steel group as printed in the beta steel paragraph, FIG. 5, H=13.7, p=0.033) of the same sequence?
The value was “significant difference”.

And the “differences in pixel number between treatments” value ([2]; PlasOx 1 steel, FIG. 6, H=15.4 p=0.017)?
The value was “significant”.

What about the “differences in pixel number between treatments” value ([2]; PlasOx 2 steel, FIG. 6, H=12.7 p=0.048) of the same sequence?
Its value is “significant”.

What about the “pixel number, PlasOx 2 steel versus PlasOx 1 steel” value ([2]; following environmental treatment, in most instances, FIG. 6) of the same sequence?
Its value is “higher for PlasOx 2 steel than PlasOx 1 steel”.

And the “peptide coverage of nitrided steel before and after environmental treatments” value ([2]; mild steel nitrided 19 hours at 440° C., room temperature, FIG. 2)?
Its value is “remains at a similar level”.

And the “peptide coverage of nitrided steel following environmental treatment” value ([2]; nitrided mild steel, room temperature, FIG. 3)?
Its value is “remains constant”.

And the “difference in pixel counts between treatments” value ([2]; α1 steels, FIG. 4, H=19.4 p=0.004)?
The value was “statistically significant difference”.

And the “difference in pixel counts between treatments” value ([2]; α2 steels, FIG. 4, H=12.4, p=0.053)?
The value was “no significant difference”.

What about the “difference in pixel counts between treatments” value ([2]; α3 steels, FIG. 4, H=12.8, p=0.047) of the same sequence?
The value was “statistically significant difference”.

And the “difference in pixel counts between treatments” value ([2]; β1 steels, FIG. 5, H=10.6, p=0.103)?
The value was “no significant difference”.

And the “difference in pixel counts between treatments” value ([2]; β steels (number not given), FIG. 5, H=10.9, p=0.09)?
The value was “no significant difference”.

And the “mean CFU count, peptide coated versus control” value [3]?
Its value is “consistently higher mean CFU count on control pieces of metal”.

What about the “change of pixel number” value ([4]; after 2 weeks) of the same sequence?
The value was “remained relatively constant”.

And the “change of pixel number” value ([4]; between 1 and 2 weeks)?
The value was “decreased considerably”.

And the pixels above threshold ([4]; nitrided titanium, after 1, 2, 3 and 4 weeks in PBS solution)?
Its pixels above threshold is “Pixels were observed above the threshold”.

What about the “peptide fluorescence after treatment” value ([5]; control solution, trypsin or Dettol) of the same sequence?
Its value is “remained similar”.

And the “peptide fluorescence after treatment” value ([5]; mechanical agitation using sandpaper)?
Its value is “retained, albeit at a lower level”.

What about the “absorbance (bacteria number growing on the surface)” value (bacteria [6]) of the same sequence?
The value was “very low absorbance values”.

What about the “percentage effectiveness of the coated surfaces compared to control surfaces” value (bacteria [7]; hospital setting, all time points over three months, FIG. 11B) of the same sequence?
Its value is no less than 99%.

What about the “inhibition of bacterial growth on coated surfaces” value (bacteria [7]; hospital unit, three months, FIG. 11) of the same sequence?
Its value is “complete inhibition of bacterial growth”.

What about the “colony forming units on the one coated plate that showed growth” value (bacteria [7]; month 2, believed due to contamination during swabbing or plating) of the same sequence?
The value was “one”.

And the “percentage effectiveness of the coated surfaces compared to control surfaces” value (bacteria [8]; city hospital setting, all time points over three months, FIG. 12B)?
Its value is no less than 99%.

And the “levels of bacteria on peptide-coated surfaces” value (bacteria [8]; door handles, Outpatients area of a city hospital, FIG. 12)?
The value was 1 cfu.

What about the effectiveness (bacteria [8]; door handles, Outpatients area, Example 9) of the same sequence?
The effectiveness was “greater than 99%”.

And the “inhibition of bacterial growth on treated surfaces” value (bacteria [9])?
The value was “inhibition of bacterial growth was still observed”.
